Experimental data published in patent publication US20230109318A1 (OBLIQUE THERAPEUTICS, published 2023).
Substitutions are numbered along the chain they refer to. One block for each binder: values may come before it. No end group written: not given here.

Columns and labels:
[1] = target: T1, "wild-type" (WT) peptide having the amino acid sequence CGAGGVGKSALTI (SEQ ID NO:160); assay: further ELISA on WT peptide; weaker than on the mutant peptide
T1 peptide: CGAGGVGKSALTI

[2] = target: T2, isolated G13D Ab1 peptide of SEQ ID NO:5 (human); assay: ELISA, hybridoma supernatant on dilutions of the peptide, absorbance at 405 nm
T2 peptide: CGAGDVGKSALTI-NH2

[3] = target: T2, isolated G13D Ab1 peptide of SEQ ID NO:5; assay: further ELISA, mutant peptide compared with WT peptide

binding result [1]: binds
binding result [2]: binds
B1: 4B8-1 (antibody, V domains shown)
VH: EVQLQQSGPERVKPGASVKMSCKASGYTFTDYSMHWVKQSHGKSLEWIGYINPNNGGASYNQKFKGKATLTVNKSSSTAYMELRSLTSEDSAVYYCARGDYYGGGYWGQGTTLTVSS
VL: ENVLTQSPAIMSASPGEKVTMTCSASSSVSYMHWYQQKSSTSPKLWIYDTSKVASGVPGRFSGSGSGNSYSLTINSMEAEDVATYYCFQGSGYPLTFGAGTKLELK
notes: Mouse monoclonal IgG from a hybridoma, tested as hybridoma supernatant

binding result [1]: binds
binding result [2]: binds
B2: 7D11-1 (antibody, V domains shown)
VH: QVQLQQPGAEFVKPGASVKLSCKASGYTFTRYWMHWVKQRPGRGLEWIGRIDPNSGGTTFNEKFKSKATLTVDKPSSTAYMQLSSLTSEDSAVYYCAREVGGYWGQGTTLTVSS
VL: B1 VL with S26G, S30D, V53L, N75S, K106R
notes: as for B1

binding result [3]: binds
binding result [1]: binds
B3: 11D6-1 (antibody, V domains shown)
VH: EVQLQQSGPELVKPGASVKMSCKTSGYTFTDYTMHWVKQSHGKSLEWIGYINPNNGGTYYNQRFKGKATLTVSRSSSTAYIELRSLTSDDSAVYYCARGDYYGGGYWGQGTTLRVSS
VL: B1 VL with S26G, V53L, N75S, A99D
notes: as for B1

binding result [2]: binds
B4: 7G2-1 (antibody, V domains shown)
VH: QVTLKESGPGILQPSQTLSLTCSFSGFSLSTFGMGVGWIRQPSGKGLEWLAHIWWDDDKNYNPALKSRLTISKDTSKNQVFFKIANVDTADTATYYCVQLSTMGDGGYWGQGTLVTVSA
VL: NIVMTQSPKSMSMSVGERVTLSCKASENVGTYVSWYQQKPGQSPKLLIYGASNRYTGVPDRFTGSGSGTDFILTISSVQAEDLADYHCGQSYNYPFTFGSGTKLEIK
notes: as for B1
